Laboratory results from US20050249739A1.

Molecular target: S protein of SARS-CoV (Urbani strain) on virus (SARS-CoV (Urbani strain)) (UniProt P59594)
Test: cell-based or functional assay

How did the micro-neutralization assay: fold more effective than 80R scFv on a molar basis turn out when 80R IgG1 (antibody) was run?
Its micro-neutralization assay: fold more effective than 80R scFv on a molar basis is 20 fold.
